# Results as given in paper PMC5618632, “In Vitro Glucuronidation of Wushanicaritin by Liver Microsomes, Intestine Microsomes and Expressed Human UDP-Glucuronosyltransferase Enzymes” (International Journal of Molecular Sciences, 2017).
# T1: expressed human UGT1A1 (Homo sapiens, UniProt P22309)
# T1 sequence (P22309 26-533): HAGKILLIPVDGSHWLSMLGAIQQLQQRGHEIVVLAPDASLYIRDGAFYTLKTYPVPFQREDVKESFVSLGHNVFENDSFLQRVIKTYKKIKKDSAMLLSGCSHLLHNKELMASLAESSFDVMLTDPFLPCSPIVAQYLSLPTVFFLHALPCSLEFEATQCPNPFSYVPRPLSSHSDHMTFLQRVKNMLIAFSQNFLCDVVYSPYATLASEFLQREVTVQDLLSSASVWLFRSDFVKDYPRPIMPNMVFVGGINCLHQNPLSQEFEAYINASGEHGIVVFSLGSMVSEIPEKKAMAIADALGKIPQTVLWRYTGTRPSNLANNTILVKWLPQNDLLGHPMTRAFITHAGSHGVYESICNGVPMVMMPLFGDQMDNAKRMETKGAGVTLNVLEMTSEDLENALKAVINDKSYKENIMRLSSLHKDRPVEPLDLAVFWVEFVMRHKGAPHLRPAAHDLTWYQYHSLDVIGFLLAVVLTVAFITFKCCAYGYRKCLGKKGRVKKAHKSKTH
# Key:
# [1] = parameters: method as in PMID 21968061; conditions: DPPH radical scavenging (antioxidant activity); cited from earlier work
# [2] = Glucuronidation by pooled human liver microsomes (HLM), UDPGA-supplemented; assay type: in vitro ADME; conditions: probe substrate glucuronidation
# Procedure: (§1) The reaction was terminated by adding ice-cold acetonitrile. […] All experiments were performed in triplicate.
# (§2) The parameter were as follow. V is the formation rate of the product. Vmax is the maximal velocity. […] Ksi is the substrate inhibition constant. […] (1) V=Vmax ×[S]/Km+[S] (2) V=Vmax ×[S]/Km + [S](1+[S]/Ksi)
# expressed human UGT1A1 = target: T1, expressed human UGT1A1; test: Glucuronidation by expressed UGT1A1
# Procedure: as §1
# The gradient elution program was the same as the UPLC condition of the structural identification of wushanicaritin glucuronides above. The detection wavelength was set at 270 nm, and the injection volume was 8 µL.
# as §2
# The contribution of individual expressed UGT enzymes to wushanicaritin glucuronidation in HLM was evaluated by the relative activity factor (RAF) approach as described in previous studies. The relative activity factor was defined as the activity ratio of HLM to an expressed UGT enzyme (Supersome) toward a probe substrate for this enzyme using Equation (3). The relative amount of wushanicaritin glucuronidation in HLM attributed to an expressed UGT enzyme was estimated by multiplying the glucuronidation activity (i.e., the intrinsic clearance) derived with this enzyme by the corresponding RAF. […] The contributions of individual UGT enzyme were calculated according to Equation (4). (3) RAF=CLint{probe,pHLM}/CLint{probe,Supersome} (4) Contribution of UGTs=CLint(wushanica ritin,UGTs)/CLint(wushanica ritin,pHLM)×RAF
# [3] = substrate: COc1ccc(-c2oc3c(CCC(C)(C)O)c(O)cc(O)c3c(=O)c2O)cc1; test: Glucuronidation by expressed UGT1A3; assay type: in vitro ADME, human; conditions: pH 7.4
# Procedure: Wushanicaritin was incubated with HLM, HIM and expressed UGTs enzymes to determine the rates of glucuronidation as published previously [12, 23, 31]. Briefly, the incubation mixture mainly contained 50 mM Tris-hydrochloric acid buffer (pH 7.4), 0.88 mM MgCl2, 22 µg/mL alamethicin, 4.4 mM saccharolactone and 3.5 mM UDPGA [32]. The reaction was terminated by adding ice-cold acetonitrile. The samples were vortexed and centrifuged at 13,800× g for 10 min. The supernatant was subjected to UPLC/Q-TOF-MS (Waters Corporation, Manchester, UK) analysis. […] Similarly, wushanicaritin was incubated with DLM, RLM, MkLM, RaLM and GpLM in the same way as for HLM. All experiments were performed in triplicate. Preliminary experiments were performed to ensure that the rates of glucuronidation were determined under linear conditions with respect to the incubation time and protein concentration.
# Serial concentrations of wushanicaritin (0.156–20 µM) were incubated with HLM, HIM and expressed UGTs enzymes to determine wushanicaritin glucuronidation rates. […] Appropriate models were selected by visual inspection of the Eadie–Hofstee plot [34]. Model fitting and parameter estimation were performed by GraphPad Prism V5 software (GraphPad Software, Inc., San Diego, CA, USA).
# The parameter were as follow. V is the formation rate of the product. Vmax is the maximal velocity. Km is the Michaelis constant, and [S] is the substrate. Ksi is the substrate inhibition constant. The intrinsic clearance (CLint) was derived by Vmax/Km for the Michaelis–Menten and substrate inhibition models [12]. (1) V=Vmax ×[S]/Km+[S] (2) V=Vmax ×[S]/Km + [S](1+[S]/Ksi)
# (§3) The contribution of individual expressed UGT enzymes to wushanicaritin glucuronidation in HLM was evaluated by the relative activity factor (RAF) approach as described in previous studies [2, 12]. The relative activity factor was defined as the activity ratio of HLM to an expressed UGT enzyme (Supersome) toward a probe substrate for this enzyme using Equation (3). The relative amount of wushanicaritin glucuronidation in HLM attributed to an expressed UGT enzyme was estimated by multiplying the glucuronidation activity (i.e., the intrinsic clearance) derived with this enzyme by the corresponding RAF. […] The contributions of individual UGT enzyme were calculated according to Equation (4). (3) RAF=CLint{probe,pHLM}/CLint{probe,Supersome} (4) Contribution of UGTs=CLint(wushanica ritin,UGTs)/CLint(wushanica ritin,pHLM)×RAF
# not read [4] = substrate: C[C@H](CCC(=O)O)[C@H]1CC[C@H]2[C@@H]3[C@H](O)C[C@@H]4C[C@H](O)CC[C@]4(C)[C@H]3CC[C@]12C; test: not read; conditions: other: probe substrate glucuronidation; UGT1A3; pH 7.4
# [5] = substrate: COc1ccc(-c2oc3c(CCC(C)(C)O)c(O)cc(O)c3c(=O)c2O)cc1; test: Glucuronidation by expressed UGT1A8; assay type: in vitro ADME, human; conditions: pH 7.4
# Procedure: as §1, §2
# not read [6] = substrate: COc1ccc(-c2oc3c(CCC(C)(C)O)c(O)cc(O)c3c(=O)c2O)cc1; test: not read; conditions: pH 7.4
# Procedure: Briefly, the incubation mixture mainly contained 50 mM Tris-hydrochloric acid buffer (pH 7.4), 0.88 mM MgCl2, 22 µg/mL alamethicin, 4.4 mM saccharolactone and 3.5 mM UDPGA [32]. The reaction was terminated by adding ice-cold acetonitrile. […] The supernatant was subjected to UPLC/Q-TOF-MS (Waters Corporation, Manchester, UK) analysis. […] All experiments were performed in triplicate. Preliminary experiments were performed to ensure that the rates of glucuronidation were determined under linear conditions with respect to the incubation time and protein concentration.
# Appropriate models were selected by visual inspection of the Eadie–Hofstee plot [34]. Model fitting and parameter estimation were performed by GraphPad Prism V5 software (GraphPad Software, Inc., San Diego, CA, USA).
# V is the formation rate of the product. Vmax is the maximal velocity. Km is the Michaelis constant, and [S] is the substrate. Ksi is the substrate inhibition constant. The intrinsic clearance (CLint) was derived by Vmax/Km for the Michaelis–Menten and substrate inhibition models [12]. (1) V=Vmax ×[S]/Km+[S] (2) V=Vmax ×[S]/Km + [S](1+[S]/Ksi)
# as §3
# [7] = substrate: COc1ccc(-c2oc3c(CCC(C)(C)O)c(O)cc(O)c3c(=O)c2O)cc1; test: Glucuronidation by expressed UGT1A7; assay type: in vitro ADME, human; conditions: pH 7.4
# Procedure: as §1, §2
# [8] = other: formation of G1 (3-O-glucuronide)
# [9] = other: formation of G2 (7-O-glucuronide)
# [10] = other: formation of G1 (3-O-glucuronide), UGT2B7
# [11] = other: formation of G2 (7-O-glucuronide), UGT2B7
# [12] = other: formation of G1 (3-O-glucuronide), UGT1A1
# [13] = other: formation of G2 (7-O-glucuronide), UGT1A1
molecule,measurement,setting,value
"O=C1O[C@H]([C@@H](O)CO)C(O)=C1O [vitamin C, reference compound]",IC50,[1],32 µM
"C[C@]12CC[C@@H]3c4ccc(O)cc4CC[C@H]3[C@@H]1CC[C@@H]2O [β-estradiol, reference compound]",Vmax,[2],0.19 ± 0.09 nmol/min/mg
same,Km,expressed human UGT1A1,25.3 ± 4.28 µM
"expressed human UGT1A3 (Homo sapiens) (protein, purchased Corning Biosciences) GKVLVVPIDGSHWLSMREVLRELHARGHQAVVLTPEVNMHIKEENFFTLTTYAISWTQDEFDRHVLGHTQLYFETEHFLKKFFRSMAMLNNMSLVYHRSCVELLHNEALIRHLNATSFDVVLTDPVNLCAAVLAKYLSIPTVFFLRNIPCDLDFKGTQCPNPSSYIPRLLTTNSDHMTFMQRVKNMLYPLALSYICHAFSAPYASLASELFQREVSVVDILSHASVWLFRGDFVMDYPRPIMPNMVFIGGINCANRKPLSQEFEAYINASGEHGIVVFSLGSMVSEIPEKKAMAIADALGKIPQTVLWRYTGTRPSNLANNTILVKWLPQNDLLGHPMTRAFITHAGSHGVYESICNGVPMVMMPLFGDQMDNAKRMETKGAGVTLNVLEMTSEDLENALKAVINDKSYKENIMRLSSLHKDRPVEPLDLAVFWVEFVMRHKGAPHLRPAAHDLTWYQYHSLDVIGFLLAVVLTVAFITFKCCAYGYRKCLGKKGRVKKAHKSKTH",K0.5,[3]; [8],0.45 ± 0.04 µM
same,Vmax,[3]; [8],0.00017 µmol/min/mg
same,Vmax/Km,[3]; [8],360 µL/min/mg
same,K0.5,[3]; [9],0.61 ± 0.08 µM
same,Vmax,[3]; [9],0.00023 µmol/min/mg
same,Vmax/Km,[3]; [9],380 µL/min/mg
same,Km,not read [4],10.90 ± 0.74 µM
same,Vmax,not read [4],0.0002 µmol/min/mg
same,Vmax/Km,not read [4],18.5 µL/min/mg
"expressed human UGT1A8 (Homo sapiens) (protein, purchased Corning Biosciences) GKLLVVPMDGSHWFTMQSVVEKLILRGHEVVVVMPEVSWQLGKSLNCTVKTYSTSYTLEDLDREFMDFADAQWKAQVRSLFSLFLSSSNGFFNLFFSHCRSLFNDRKLVEYLKESSFDAVFLDPFDACGLIVAKYFSLPSVVFARGIACHYLEEGAQCPAPLSYVPRILLGFSDAMTFKERVRNHIMHLEEHLFCQYFSKNALEIASEILQTPVTAYDLYSHTSIWLLRTDFVLDYPKPVMPNMIFIGGINCHQGKPLPMEFEAYINASGEHGIVVFSLGSMVSEIPEKKAMAIADALGKIPQTVLWRYTGTRPSNLANNTILVKWLPQNDLLGHPMTRAFITHAGSHGVYESICNGVPMVMMPLFGDQMDNAKRMETKGAGVTLNVLEMTSEDLENALKAVINDKSYKENIMRLSSLHKDRPVEPLDLAVFWVEFVMRHKGAPHLRPAAHDLTWYQYHSLDVIGFLLAVVLTVAFITFKCCAYGYRKCLGKKGRVKKAHKSKTH",K0.5,[5]; [8],0.38 ± 0.03 µM
same,Vmax,[5]; [8],2e-05 µmol/min/mg
same,Vmax/Km,[5]; [8],50 µL/min/mg
same,K0.5,[5]; [9],0.58 ± 0.07 µM
same,Vmax,[5]; [9],7e-05 µmol/min/mg
same,Vmax/Km,[5]; [9],120 µL/min/mg
expressed human UGT2B7 (Homo sapiens) (protein) GKVLVWAAEYSHWMNIKTILDELIQRGHEVTVLASSASILFDPNNSSALKIEIYPTSLTKTELENFIMQQIKRWSDLPKDTFWLYFSQVQEIMSIFGDITRKFCKDVVSNKKFMKKVQESRFDVIFADAIFPCSELLAELFNIPFVYSLSFSPGYTFEKHSGGFIFPPSYVPVVMSELTDQMTFMERVKNMIYVLYFDFWFEIFDMKKWDQFYSEVLGRPTTLSETMGKADVWLIRNSWNFQFPYPLLPNVDFVGGLHCKPAKPLPKEMEDFVQSSGENGVVVFSLGSMVSNMTEERANVIASALAQIPQKVLWRFDGNKPDTLGLNTRLYKWIPQNDLLGHPKTRAFITHGGANGIYEAIYHGIPMVGIPLFADQPDNIAHMKARGAAVRVDFNTMSSTDLLNALKRVINDPSYKENVMKLSRIQHDQPVKPLDRAVFWIEFVMRHKGAKHLRVAAHDLTWFQYHSLDVIGFLLVCVATVIFIVTKCCLFCFWKFARKAKKGKND,K0.5,not read [6]; [10],2.34 ± 0.19 µM
same,Vmax,not read [6]; [10],3e-05 µmol/min/mg
same,Vmax/Km,not read [6]; [10],10 µL/min/mg
same,K0.5,not read [6]; [11],5.28 ± 0.98 µM
same,Vmax,not read [6]; [11],1e-05 µmol/min/mg
same,Vmax/Km,not read [6]; [11],2 µL/min/mg
expressed human UGT1A1 (Homo sapiens) (protein) HAGKILLIPVDGSHWLSMLGAIQQLQQRGHEIVVLAPDASLYIRDGAFYTLKTYPVPFQREDVKESFVSLGHNVFENDSFLQRVIKTYKKIKKDSAMLLSGCSHLLHNKELMASLAESSFDVMLTDPFLPCSPIVAQYLSLPTVFFLHALPCSLEFEATQCPNPFSYVPRPLSSHSDHMTFLQRVKNMLIAFSQNFLCDVVYSPYATLASEFLQREVTVQDLLSSASVWLFRSDFVKDYPRPIMPNMVFVGGINCLHQNPLSQEFEAYINASGEHGIVVFSLGSMVSEIPEKKAMAIADALGKIPQTVLWRYTGTRPSNLANNTILVKWLPQNDLLGHPMTRAFITHAGSHGVYESICNGVPMVMMPLFGDQMDNAKRMETKGAGVTLNVLEMTSEDLENALKAVINDKSYKENIMRLSSLHKDRPVEPLDLAVFWVEFVMRHKGAPHLRPAAHDLTWYQYHSLDVIGFLLAVVLTVAFITFKCCAYGYRKCLGKKGRVKKAHKSKTH,K0.5,not read [6]; [12],0.98 ± 0.20 µM
same,Vmax,not read [6]; [12],0.00113 µmol/min/mg
same,Vmax/Km,not read [6]; [12],1160 µL/min/mg
same,K0.5,not read [6]; [13],0.68 ± 0.08 µM
same,Vmax,not read [6]; [13],0.00011 µmol/min/mg
same,Vmax/Km,not read [6]; [13],160 µL/min/mg
"expressed human UGT1A7 (Homo sapiens) (protein, purchased Corning Biosciences) GKLLVVPMDGSHWFTMQSVVEKLILRGHEVVVVMPEVSWQLGRSLNCTVKTYSTSYTLEDQDREFMVFADARWTAPLRSAFSLLTSSSNGIFDLFFSNCRSLFNDRKLVEYLKESCFDAVFLDPFDACGLIVAKYFSLPSVVFARGIFCHYLEEGAQCPAPLSYVPRLLLGFSDAMTFKERVWNHIMHLEEHLFCPYFFKNVLEIASEILQTPVTAYDLYSHTSIWLLRTDFVLEYPKPVMPNMIFIGGINCHQGKPVPMEFEAYINASGEHGIVVFSLGSMVSEIPEKKAMAIADALGKIPQTVLWRYTGTRPSNLANNTILVKWLPQNDLLGHPMTRAFITHAGSHGVYESICNGVPMVMMPLFGDQMDNAKRMETKGAGVTLNVLEMTSEDLENALKAVINDKSYKENIMRLSSLHKDRPVEPLDLAVFWVEFVMRHKGAPHLRPAAHDLTWYQYHSLDVIGFLLAVVLTVAFITFKCCAYGYRKCLGKKGRVKKAHKSKTH",K0.5,[7]; [8],0.47 ± 0.03 µM
same,Vmax,[7]; [8],0.00017 µmol/min/mg
same,Vmax/Km,[7]; [8],360 µL/min/mg
same,K0.5,[7]; [9],0.61 ± 0.08 µM
same,Vmax,[7]; [9],0.00023 µmol/min/mg
same,Vmax/Km,[7]; [9],380 µL/min/mg
